To fix the notation:
B1: XENP23936 (3F2, central-scFv) (antibody)
chain 1: not shown
chain 2: not shown
chain 3: EIVLTQSPGTLSLSPGERATLSCRASQSVTSSYLAWYQQKPGQAPRLLINVGSRRATGIPDRFSGSGSGTDFTLTISRLEPEDFAVYYCQQGIMLPPTFGQGTKVEIKRTVAAPSVFIFPPSDEQLKSGTASVVCLLNNFYPREAKVQWKVDNALQSGNSQESVTEQDSKDSTYSLSSTLTLSKADYEKHKVYACEVTHQGLSSPVTKSFNRGEC
B2: XENP24011 (sibrotuzumab, central-scFv) (antibody)
chain 1: QVQLVQSGAEVKKPGASVKVSCKTSRYTFTEYTIHWVRQAPGQRLEWIGGINPNNGIPNYNQKFKGRVTITVDTSASTAYMELSSLRSEDTAVYYCARRRIAYGYDEGHAMDYWGQGTLVTVSSASTKGPSVFPLAPSSKSTSGGTAALGCLVKDYFPEPVTVSWNSGALTSGVHTFPAVLQSSGLYSLSSVVTVPSSSLGTQTYICNVNHKPSDTKVDKKVEPKSCDKTHTCPPCPAPPVAGPSVFLFPPKPKDTLMISRTPEVTCVVVDVKHEDPEVKFNWYVDGVEVHNAKTKPREEEYNSTYRVVSVLTVLHQDWLNGKEYKCKVSNKALPAPIEKTISKAKGQPREPQVYTLPPSREEMTKNQVSLTCDVSGFYPSDIAVEWESDGQPENNYKTTPPVLDSDGSFFLYSKLTVDKSRWEQGDVFSCSVMHEALHNHYTQKSLSLSPGK
chain 2: QVQLVQSGAEVKKPGASVKVSCKTSRYTFTEYTIHWVRQAPGQRLEWIGGINPNNGIPNYNQKFKGRVTITVDTSASTAYMELSSLRSEDTAVYYCARRRIAYGYDEGHAMDYWGQGTLVTVSSASTKGPSVFPLAPSSKSTSGGTAALGCLVKDYFPEPVTVSWNSGALTSGVHTFPAVLQSSGLYSLSSVVTVPSSSLGTQTYICNVNHKPSNTKVDKKVEPKSCGGGGSGGGGSEVQLVESGGGLVQPGGSLRLSCAASGFTFSTYAMNWVRQAPGKGLEWVGRIRSKYNNYATYYADSVKGRFTISRDDSKNTLYLQMNSLRAEDTAVYYCVRHGNFGDSYVSWFAYWGQGTLVTVSSGKPGSGKPGSGKPGSGKPGSQAVVTQEPSLTVSPGGTVTLTCGSSTGAVTTSNYANWVQQKPGKSPRGLIGGTNKRAPGVPARFSGSLLGGKAALTISGAQPEDEADYYCALWYSNHWVFGGGTKLTVLGGGGSGGGGSKTHTCPPCPAPPVAGPSVFLFPPKPKDTLMISRTPEVTCVVVDVKHEDPEVKFNWYVDGVEVHNAKTKPREEQYNSTYRVVSVLTVLHQDWLNGKEYKCKVSNKALPAPIEKTISKAKGQPREPQVYTLPPSREQMTKNQVKLTCLVKGFYPSDIAVEWESNGQPENNYKTTPPVLDSDGSFFLYSKLTVDKSRWQQGNVFSCSVMHEALHNHYTQKSLSLSPGK
chain 3: not shown
B3: XENP24462 (1F4B5) (antibody, V domains shown)
VH: EVQLLESGGGLVQPGGSLRLSCAASGFTFSRYAMTWVRQAPGKGLEWVSSISASGGSTYYADSVKGRFTISRDNSKNTLYLQMNSLRAEDTAVYYCAKTFSGYAHYDFDYWGQGTLVTVSS
VL: not shown
B4: XENP23534 (sibrotuzumab) (antibody, V domains shown)
VH: QVQLVQSGAEVKKPGASVKVSCKTSRYTFTEYTIHWVRQAPGQRLEWIGGINPNNGIPNYNQKFKGRVTITVDTSASTAYMELSSLRSEDTAVYYCARRRIAYGYDEGHAMDYWGQGTLVTVSS
VL: DIVMTQSPDSLAVSLGERATINCKSSQSLLYSRNQKNYLAWYQQKPGQPPKLLIFWASTRESGVPDRFSGSGFGTDFTLTISSLQAEDVAVYYCQQYFSYPLTFGQGTKVEIKR
B5: XENP24460 (1A1B5) (antibody, V domains shown)
VH: EVQLLESGGGLVQPGGSLRLSCAASGFTFSSYAMNWVRQAPGKGLEWVSTISSSGSRTYYADSVKGRFTISRDNSKNTLYLQMNSLRAEDTAVYYCAKGLVASAPFDYWGQGTLVTVSS
VL: not shown
B6: XENP24448 (1C3A5) (antibody, V domains shown)
VH: EVQLLESGGGLVQPGGSLRLSCAASGFTFSSYAMSWVRQAPGKGLEWVSAISGSGGGTRYADSVKGRFTISRDNSKNTLYLQMNSLRAEDTAVYYCAKHSSGFHWYFDYWGQGTLVTVSS
VL: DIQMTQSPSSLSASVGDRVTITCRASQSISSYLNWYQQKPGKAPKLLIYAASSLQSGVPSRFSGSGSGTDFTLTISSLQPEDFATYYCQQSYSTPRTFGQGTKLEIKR
B7: XENP24471 (1F10B5) (antibody, V domains shown)
VH: EVQLLESGGGLVQPGGSLRLSCAASGFTFSSYGMSWVRQAPGKGLEWVSGISGSGSSTHYADSVKGRFTISRDNSKNTLYLQMNSLRAEDTAVYYCAKGTTGLSYFDYWGQGTLVTVSS
VL: not shown
B8: XENP24466 (1F12B5) (antibody, V domains shown)
VH: EVQLLESGGGLVQPGGSLRLSCAASGFTFSSYAMTWVRQAPGKGLEWVSTISSSGGTTYYADSVKGRFTISRDNSKNTLYLQMNSLRAEDTAVYYCAKYPSYYSVTGFDYWGQGTLVTVSS
VL: not shown
B9: XENP24461 (1A7B5) (antibody, V domains shown)
VH: EVQLLESGGGLVQPGGSLRLSCAASGFTFSSYAMSWVRQAPGKGLEWVSGISGGGGSTYYADSVKGRFTISRDNSKNTLYLQMNSLRAEDTAVYYCAKIAHSRIGWHFDYWGQGTLVTVSS
VL: not shown
B10: XENP24463 (1F11B5) (antibody, V domains shown)
VH: EVQLLESGGGLVQPGGSLRLSCAASGFTFSSYAMNWVRQAPGKGLEWVSGISGGGSSTTYYADSVKGRFTISRDNSKNTLYLQMNSLRAEDTAVYYCAKPYYWVDSFFDYWGQGTLVTVSS
VL: not shown

The first test deals with T1, Cyno FAP.
T1 chain: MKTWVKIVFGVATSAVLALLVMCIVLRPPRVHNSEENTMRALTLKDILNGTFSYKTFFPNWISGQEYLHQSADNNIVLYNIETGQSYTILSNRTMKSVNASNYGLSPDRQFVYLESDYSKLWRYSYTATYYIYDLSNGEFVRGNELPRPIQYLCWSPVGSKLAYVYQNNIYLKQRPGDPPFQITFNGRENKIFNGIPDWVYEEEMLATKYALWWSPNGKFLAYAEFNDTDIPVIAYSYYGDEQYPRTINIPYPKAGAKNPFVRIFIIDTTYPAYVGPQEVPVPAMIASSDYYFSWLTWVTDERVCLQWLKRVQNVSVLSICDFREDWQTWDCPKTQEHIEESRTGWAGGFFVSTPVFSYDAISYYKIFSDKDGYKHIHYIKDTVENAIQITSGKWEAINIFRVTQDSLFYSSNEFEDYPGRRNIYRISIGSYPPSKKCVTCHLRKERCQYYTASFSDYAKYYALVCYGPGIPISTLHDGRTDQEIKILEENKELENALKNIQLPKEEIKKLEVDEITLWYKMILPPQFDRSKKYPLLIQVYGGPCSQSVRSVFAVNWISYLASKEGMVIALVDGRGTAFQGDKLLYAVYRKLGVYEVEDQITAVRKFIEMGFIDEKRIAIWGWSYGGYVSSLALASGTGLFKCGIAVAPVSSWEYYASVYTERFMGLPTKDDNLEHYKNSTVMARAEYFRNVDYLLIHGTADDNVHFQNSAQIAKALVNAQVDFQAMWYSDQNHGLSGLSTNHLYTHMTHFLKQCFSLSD
In words: Octet; apparent KD. (Biolayer interferometry detects binding as a change in optical thickness at a sensor tip.)
Regarding B1, the Kd amounted to 0.187 nM.

As for B2, the Kd stood at 0.0149 nM.

The next test concerns the target T2, His-tagged human FAP (human, UniProt Q12884 26-760). In words: Octet; apparent KD.
With B1, the Kd stood at 0.323 nM.

Turning to B2, the Kd was found to be 0.0308 nM.

The target in a further test is T3, Cyno.
T3 chain: T1 chain
In words: Octet.
For B3, the Kd was found to be 0.53 nM.

The molecule B4 yielded a Kd of less than 0.001 nM.

B5: the Kd was 0.458 nM.

Take B6: the Kd came to 5.01 nM.

For B7, the Kd amounted to 6.93 nM.

For the molecule B8, the Kd is less than 0.001 nM.

On to B9, for which the Kd came to 1.11 nM.

Molecule B10 showed a Kd of 0.0224 nM.

For another test, the target named is T4, His-tagged murine FAP (murine, UniProt P97321 26-761).
T4 chain: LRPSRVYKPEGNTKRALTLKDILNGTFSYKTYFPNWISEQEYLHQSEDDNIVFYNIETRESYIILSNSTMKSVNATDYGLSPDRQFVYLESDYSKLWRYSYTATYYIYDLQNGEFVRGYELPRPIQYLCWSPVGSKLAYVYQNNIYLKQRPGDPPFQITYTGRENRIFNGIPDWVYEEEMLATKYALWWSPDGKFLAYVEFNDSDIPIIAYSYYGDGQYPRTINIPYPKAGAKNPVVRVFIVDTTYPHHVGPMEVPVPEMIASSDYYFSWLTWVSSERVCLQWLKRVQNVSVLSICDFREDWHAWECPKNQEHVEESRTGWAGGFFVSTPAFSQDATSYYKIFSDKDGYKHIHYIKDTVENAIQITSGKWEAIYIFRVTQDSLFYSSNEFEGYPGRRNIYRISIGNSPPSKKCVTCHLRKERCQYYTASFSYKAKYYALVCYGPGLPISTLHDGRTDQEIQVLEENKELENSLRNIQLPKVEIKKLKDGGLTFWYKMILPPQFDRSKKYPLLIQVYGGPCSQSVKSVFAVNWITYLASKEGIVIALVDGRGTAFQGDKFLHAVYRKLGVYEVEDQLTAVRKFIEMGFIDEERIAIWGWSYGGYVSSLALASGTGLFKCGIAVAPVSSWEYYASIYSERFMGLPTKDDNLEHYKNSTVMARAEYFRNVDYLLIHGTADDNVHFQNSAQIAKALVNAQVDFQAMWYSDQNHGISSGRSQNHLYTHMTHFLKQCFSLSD
In words: Octet.
For B3, the Kd came to 33 nM.

Turning to B7, the Kd turned out to be 4.52 nM.

In turn, B10 registered a Kd of 45.5 nM.

For a further test, the target named is T2, His-tagged human FAP. Nature of the test: Octet.
In the case of B3, the Kd stood at 0.372 nM.

Consider B4, for which the Kd is less than 0.001 nM.

For the molecule B5, the Kd is 0.515 nM.

B6: the Kd was found to be 4.54 nM.

B7 displayed a Kd of 9.13 nM.

With B8, the Kd was less than 0.001 nM.

Turning to B9, the Kd worked out at 1.02 nM.

Molecule B10 displayed a Kd of less than 0.001 nM.

These data come from US20210253736A1 (published 2021).
